The values below come from patent US20200231654A1 (published 2020).

A value given as a limit tells only on which side of the number the result lay.

In experiment [1] the target is Recombinant Human MMP-16/MT3-MMP Protein, CF (human, UniProt P51512 32-564). The experiment is described as follows: enzyme inhibition.
In experiment [2] the target is T1, MMP-7 (catalytic domain) (human), (recombinant) (human, UniProt P09237 95-267).
T1 chain: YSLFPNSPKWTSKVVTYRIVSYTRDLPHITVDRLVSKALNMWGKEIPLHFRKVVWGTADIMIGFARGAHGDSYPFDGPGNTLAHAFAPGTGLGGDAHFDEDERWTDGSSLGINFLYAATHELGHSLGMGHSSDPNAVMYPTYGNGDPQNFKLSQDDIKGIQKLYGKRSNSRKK
In words: enzyme inhibition.

Experiment [3] concerns the target active mMMP-9(cat)_FLAG_Avi (UniProt P41245 108-450). The experiment is described as follows: enzyme inhibition; substrate peptide.
Experiment [4] deals with Thrombin from human plasma (human, UniProt P00734 328-622). In words: substrate peptide degradation inhibition.
Experiment [5] addresses T2, Plasmin from human plasma (human, UniProt P00747 97-810).
T2 chain: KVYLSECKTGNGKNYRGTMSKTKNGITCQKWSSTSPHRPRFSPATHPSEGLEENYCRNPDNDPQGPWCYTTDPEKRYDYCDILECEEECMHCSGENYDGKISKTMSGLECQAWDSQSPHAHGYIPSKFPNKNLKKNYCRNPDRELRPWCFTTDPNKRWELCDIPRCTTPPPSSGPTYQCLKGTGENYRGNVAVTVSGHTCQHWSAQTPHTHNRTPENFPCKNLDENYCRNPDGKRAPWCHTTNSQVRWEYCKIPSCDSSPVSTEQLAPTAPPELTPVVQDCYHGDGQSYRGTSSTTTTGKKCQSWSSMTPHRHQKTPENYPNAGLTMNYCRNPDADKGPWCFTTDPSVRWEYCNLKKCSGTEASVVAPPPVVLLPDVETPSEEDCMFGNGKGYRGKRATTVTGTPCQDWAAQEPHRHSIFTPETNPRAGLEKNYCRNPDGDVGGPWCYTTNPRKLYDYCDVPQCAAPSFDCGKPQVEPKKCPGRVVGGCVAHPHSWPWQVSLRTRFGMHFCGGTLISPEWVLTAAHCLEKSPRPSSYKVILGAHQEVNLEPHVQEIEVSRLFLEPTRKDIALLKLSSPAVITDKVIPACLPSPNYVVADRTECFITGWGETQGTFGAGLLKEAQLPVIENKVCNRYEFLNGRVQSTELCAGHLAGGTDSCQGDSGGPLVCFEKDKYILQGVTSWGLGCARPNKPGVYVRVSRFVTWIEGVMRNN
The experiment is described as follows: substrate peptide degradation inhibition.

In experiment [6] the target is T3, Recombinant Human Matriptase/ST14 Catalytic Domain (human, UniProt Q9Y5Y6 596-855).
T3 chain: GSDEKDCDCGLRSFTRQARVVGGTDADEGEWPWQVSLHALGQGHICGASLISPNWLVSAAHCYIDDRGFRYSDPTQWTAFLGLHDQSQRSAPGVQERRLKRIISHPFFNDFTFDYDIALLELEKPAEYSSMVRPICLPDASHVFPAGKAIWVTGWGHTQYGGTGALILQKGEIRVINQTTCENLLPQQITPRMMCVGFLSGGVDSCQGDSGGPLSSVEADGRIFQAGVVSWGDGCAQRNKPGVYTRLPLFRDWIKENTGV
In words: substrate peptide degradation inhibition.

The target in experiment [7] is Protein C from human plasma (human, UniProt P04070 43-461). The experiment is described as follows: substrate peptide degradation inhibition.
For experiment [8], the target named is tissue plasminogen activator human (human, UniProt P00750 36-562). The experiment is described as follows: substrate peptide degradation inhibition.
Experiment [9] deals with Trypsin from Human Pancreas (human, UniProt P07477 24-247). In words: substrate peptide degradation inhibition.
For another experiment, the target named is Tryptase from human lung (human, UniProt Q15661 31-275). In words: substrate peptide degradation inhibition.
Experiment [10] concerns the target T4, Chymase human recombinant expressed in Pichia pastoris (human, UniProt P23946 22-247).
T4 chain: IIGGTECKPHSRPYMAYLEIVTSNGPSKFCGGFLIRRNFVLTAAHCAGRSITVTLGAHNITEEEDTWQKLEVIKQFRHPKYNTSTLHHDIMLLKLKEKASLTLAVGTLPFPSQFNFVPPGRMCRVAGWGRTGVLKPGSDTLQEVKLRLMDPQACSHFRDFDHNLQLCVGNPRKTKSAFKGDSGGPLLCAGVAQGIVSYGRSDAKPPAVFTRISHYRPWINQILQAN
In words: substrate peptide degradation inhibition.

In experiment [11] the target is T5, Neutrophil elastase (human) (human, UniProt P08246 30-247).
T5 chain: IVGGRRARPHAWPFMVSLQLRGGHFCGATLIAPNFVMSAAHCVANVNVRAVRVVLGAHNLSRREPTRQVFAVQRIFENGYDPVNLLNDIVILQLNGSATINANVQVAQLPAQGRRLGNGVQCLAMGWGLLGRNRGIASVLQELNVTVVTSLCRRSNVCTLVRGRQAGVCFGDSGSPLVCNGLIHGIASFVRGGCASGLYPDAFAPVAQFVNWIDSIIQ
The experiment is described as follows: substrate peptide degradation inhibition.

The target in experiment [12] is recombinant human plasma kallikrein/KLKB1 Protein (human, UniProt P03952 20-638). The experiment is described as follows: substrate peptide degradation inhibition.
In experiment [13] the target is urokinase from human urine (human, UniProt P00749 21-431). The experiment is described as follows: substrate peptide degradation inhibition.
Experiment [14] deals with α-Chymotrypsin from human pancreas (human, UniProt P17538 19-263). The experiment is described as follows: substrate peptide degradation inhibition.
Another experiment deals with active hMMP-9(cat)_His6 (UniProt P14780 107-449). In words: enzyme inhibition; substrate gelatin.
active hMMP-9(cat)_His6, sequence (P14780 107-449): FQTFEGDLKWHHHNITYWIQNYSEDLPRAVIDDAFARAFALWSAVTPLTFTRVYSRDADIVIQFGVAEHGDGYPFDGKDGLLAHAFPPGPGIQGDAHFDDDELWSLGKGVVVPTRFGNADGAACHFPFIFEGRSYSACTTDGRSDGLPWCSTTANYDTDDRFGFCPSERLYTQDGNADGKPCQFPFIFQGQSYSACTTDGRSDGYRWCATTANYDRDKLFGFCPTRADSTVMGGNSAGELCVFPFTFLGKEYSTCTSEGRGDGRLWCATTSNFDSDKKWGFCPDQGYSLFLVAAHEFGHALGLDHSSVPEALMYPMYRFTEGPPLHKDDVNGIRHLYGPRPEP

Recombinant Human MMP-16/MT3-MMP Protein, CF, sequence (P51512 32-564): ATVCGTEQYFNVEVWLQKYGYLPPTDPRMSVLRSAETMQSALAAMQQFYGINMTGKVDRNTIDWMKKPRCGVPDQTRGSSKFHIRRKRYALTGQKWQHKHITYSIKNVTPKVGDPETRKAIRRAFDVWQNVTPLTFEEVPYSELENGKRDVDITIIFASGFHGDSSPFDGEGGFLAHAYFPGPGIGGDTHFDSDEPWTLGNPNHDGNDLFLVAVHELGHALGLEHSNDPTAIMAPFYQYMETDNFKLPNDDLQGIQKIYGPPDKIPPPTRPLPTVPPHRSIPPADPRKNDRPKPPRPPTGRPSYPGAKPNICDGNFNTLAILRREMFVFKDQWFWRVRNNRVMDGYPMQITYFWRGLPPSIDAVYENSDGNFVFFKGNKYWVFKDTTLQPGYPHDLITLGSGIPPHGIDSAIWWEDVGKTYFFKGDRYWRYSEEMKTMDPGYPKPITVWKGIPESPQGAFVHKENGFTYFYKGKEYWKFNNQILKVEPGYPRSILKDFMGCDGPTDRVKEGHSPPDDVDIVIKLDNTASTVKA
Tryptase from human lung, sequence (Q15661 31-275): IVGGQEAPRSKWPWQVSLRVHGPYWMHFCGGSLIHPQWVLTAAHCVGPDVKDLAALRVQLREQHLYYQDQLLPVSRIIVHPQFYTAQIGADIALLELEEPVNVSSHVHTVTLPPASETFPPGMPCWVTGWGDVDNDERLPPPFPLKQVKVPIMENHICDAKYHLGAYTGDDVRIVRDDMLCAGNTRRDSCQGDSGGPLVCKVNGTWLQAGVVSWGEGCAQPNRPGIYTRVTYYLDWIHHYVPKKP
α-Chymotrypsin from human pancreas, sequence (P17538 19-263): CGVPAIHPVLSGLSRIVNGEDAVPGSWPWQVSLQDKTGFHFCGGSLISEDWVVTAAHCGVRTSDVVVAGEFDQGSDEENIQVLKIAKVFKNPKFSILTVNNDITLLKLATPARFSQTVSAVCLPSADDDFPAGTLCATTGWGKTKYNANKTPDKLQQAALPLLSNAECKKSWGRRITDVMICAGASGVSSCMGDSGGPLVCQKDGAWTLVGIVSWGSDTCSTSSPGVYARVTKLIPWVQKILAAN
active mMMP-9(cat)_FLAG_Avi, sequence (P41245 other isoform, or with tags, fused parts or gaps): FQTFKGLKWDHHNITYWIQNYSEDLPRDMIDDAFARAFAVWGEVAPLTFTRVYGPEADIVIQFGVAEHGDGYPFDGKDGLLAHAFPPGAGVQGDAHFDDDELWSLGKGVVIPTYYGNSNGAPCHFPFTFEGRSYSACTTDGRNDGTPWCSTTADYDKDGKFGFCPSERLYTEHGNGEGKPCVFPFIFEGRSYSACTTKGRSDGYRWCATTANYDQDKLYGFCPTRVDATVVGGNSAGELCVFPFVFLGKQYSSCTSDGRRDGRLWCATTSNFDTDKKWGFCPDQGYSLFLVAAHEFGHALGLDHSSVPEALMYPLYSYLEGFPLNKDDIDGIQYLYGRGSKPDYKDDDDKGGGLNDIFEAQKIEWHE
recombinant human plasma kallikrein/KLKB1 Protein, sequence (P03952 20-638): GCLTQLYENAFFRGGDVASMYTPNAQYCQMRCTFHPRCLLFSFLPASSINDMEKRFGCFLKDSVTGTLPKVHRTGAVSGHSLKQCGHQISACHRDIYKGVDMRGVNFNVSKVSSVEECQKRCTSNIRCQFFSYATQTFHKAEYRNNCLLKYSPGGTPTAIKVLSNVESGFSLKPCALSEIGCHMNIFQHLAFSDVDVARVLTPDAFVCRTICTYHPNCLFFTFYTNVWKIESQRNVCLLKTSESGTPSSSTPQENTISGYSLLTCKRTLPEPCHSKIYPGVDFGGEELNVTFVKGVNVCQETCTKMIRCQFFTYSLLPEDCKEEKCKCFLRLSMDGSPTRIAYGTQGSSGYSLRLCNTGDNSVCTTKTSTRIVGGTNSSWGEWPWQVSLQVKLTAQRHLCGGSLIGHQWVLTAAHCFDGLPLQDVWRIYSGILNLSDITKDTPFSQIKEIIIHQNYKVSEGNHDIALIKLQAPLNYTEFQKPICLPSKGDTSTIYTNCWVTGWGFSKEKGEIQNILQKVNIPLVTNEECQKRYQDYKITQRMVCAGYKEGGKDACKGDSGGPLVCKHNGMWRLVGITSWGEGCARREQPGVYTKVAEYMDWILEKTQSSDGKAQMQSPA
Protein C from human plasma, sequence (P04070 43-461): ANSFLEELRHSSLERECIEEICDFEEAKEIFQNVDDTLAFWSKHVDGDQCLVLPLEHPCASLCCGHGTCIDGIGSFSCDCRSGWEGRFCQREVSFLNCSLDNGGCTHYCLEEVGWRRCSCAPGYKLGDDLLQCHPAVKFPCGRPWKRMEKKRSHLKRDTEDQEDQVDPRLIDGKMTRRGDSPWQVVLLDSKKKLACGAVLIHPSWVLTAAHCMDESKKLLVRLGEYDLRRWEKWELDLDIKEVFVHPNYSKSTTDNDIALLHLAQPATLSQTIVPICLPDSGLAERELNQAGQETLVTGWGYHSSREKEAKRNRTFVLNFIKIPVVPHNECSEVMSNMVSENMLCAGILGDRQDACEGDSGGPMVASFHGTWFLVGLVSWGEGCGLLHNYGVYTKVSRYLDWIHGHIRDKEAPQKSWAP
tissue plasminogen activator human, sequence (P00750 36-562): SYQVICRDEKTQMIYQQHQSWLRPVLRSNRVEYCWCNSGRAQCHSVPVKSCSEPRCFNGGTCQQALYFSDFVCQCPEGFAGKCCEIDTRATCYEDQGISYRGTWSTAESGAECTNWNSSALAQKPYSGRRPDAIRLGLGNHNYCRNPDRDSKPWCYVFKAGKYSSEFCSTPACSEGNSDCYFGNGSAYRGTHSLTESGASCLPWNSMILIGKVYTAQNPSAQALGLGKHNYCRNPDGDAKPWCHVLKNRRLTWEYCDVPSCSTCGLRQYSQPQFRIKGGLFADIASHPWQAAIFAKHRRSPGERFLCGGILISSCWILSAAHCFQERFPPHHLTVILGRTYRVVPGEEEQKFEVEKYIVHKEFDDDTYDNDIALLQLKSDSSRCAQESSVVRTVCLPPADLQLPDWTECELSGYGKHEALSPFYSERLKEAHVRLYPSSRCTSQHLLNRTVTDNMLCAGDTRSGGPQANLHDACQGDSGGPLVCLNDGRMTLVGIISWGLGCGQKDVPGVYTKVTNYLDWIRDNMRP

B1: active MMP-9-binding peptide M91004 (designed binder)
chain: GSGMKETAAAKFERQHMDSPDLGTDDDDKAMADIGSANSDPQFGLFSKYRTPNCRQRKGPSCQMAFQPVCGSDMSTYANECTLCMKIREGGHNIKIIRNGPCGASAAA
The IC50 is the concentration at which inhibition is half-maximal. On to B1, for which the IC50 in experiment [1] was > 1000 nM; in experiment [2], > 1000 nM; in experiment [3], 7.1 nM; in experiment [4] it was > 1000 nM; in experiment [5], > 1000 nM; in experiment [6], > 1000 nM. Further, the half-maximal inhibitory concentration (IC50) (in experiment [7]; in experiment [8]; in experiment [9]; with Tryptase from human lung; in [10]; in experiment [11]) was > 1000 nM each time. Further, the IC50 was > 1000 nM in experiment [12], > 1000 nM in [13], > 1000 nM in [14] and 7.6 nM in the experiment with active hMMP-9(cat)_His6.

B2: active MMP-9-binding peptide M91001 (designed binder)
chain: GSGMKETAAAKFERQHMDSPDLGTDDDDKAMADIGSANSDPQFGLFSKYRTPNCQRGIGPSCQMSYKPVCGSDMSTYANECTLCMKIREGGHNIKIIRNGPCGASAAA
As for B2, the IC50 in experiment [1] is > 1000 nM; in experiment [2], > 1000 nM; in [3], 4.1 nM; in [4], > 1000 nM; in experiment [5], > 1000 nM; in experiment [6], > 1000 nM. Further, the IC50 (in [7]; in experiment [8]; in experiment [9]; with Tryptase from human lung; in experiment [10]; in experiment [11]) was > 1000 nM each time. Besides, the IC50 in experiment [12] was > 1000 nM; in experiment [13], > 1000 nM; in experiment [14], > 1000 nM; with active hMMP-9(cat)_His6 it was 8.3 nM.

B3: active MMP-9-binding peptide M91012 (designed binder)
chain: GSGMKETAAAKFERQHMDSPDLGTDDDDKAMADIGSANSDPQFGLFSKYRTPNCRVRGGPSCQMSFNPVCGSDMSTYANECTLCMKIREGGHNIKIIRNGPCGASAAA
Turning to B3, the IC50 in experiment [1] is > 1000 nM; in experiment [2], > 1000 nM; in experiment [3], 7.8 nM; in experiment [4] it was > 1000 nM; in experiment [5] it was > 1000 nM; in [6], > 1000 nM. The IC50 (in experiment [7]; in [8]; in experiment [9]; with Tryptase from human lung; in experiment [10]; in experiment [11]) was > 1000 nM in each case. Besides, the IC50 in experiment [12] is > 1000 nM; in experiment [13], > 1000 nM; in experiment [14], > 1000 nM; with active hMMP-9(cat)_His6, 8.6 nM.

B4: active MMP-9-binding peptide M91011 (designed binder)
chain: GSGMKETAAAKFERQHMDSPDLGTDDDDKAMADIGSANSDPQFGLFSKYRTPNCMMYKYAQCSHKSQPVCGSDMSTYANECTLCMKIREGGHNIKIIRNGPCGASAAA
On to B4, for which the IC50 was > 1000 nM in experiment [1]; > 1000 nM in experiment [2]; 21 nM in experiment [3]; > 1000 nM in [4]; > 1000 nM in experiment [5]; > 1000 nM in experiment [6]. Also, the IC50 (in experiment [7]; in experiment [8]; in [9]; in the experiment with Tryptase from human lung; in [10]; in experiment [11]) was > 1000 nM throughout. The IC50 in [12], in [13] and in [14] was > 1000 nM in each case.

B5: active MMP-9-binding peptide M91010 (designed binder)
chain: GSGMKETAAAKFERQHMDSPDLGTDDDDKAMADIGSANSDPQFGLFSKYRTPNCRKVGEPACQMSFNPVCGSDMSTYANECTLCMKIREGGHNIKIIRNGPCGASAAA
B5: the IC50 in experiment [1] is > 1000 nM; in experiment [2], > 1000 nM; in experiment [3], 5 nM; in experiment [4] it was > 1000 nM; in experiment [5], > 1000 nM; in experiment [6], > 1000 nM. Moreover, the IC50 (in experiment [7]; in [8]; in experiment [9]; with Tryptase from human lung; in experiment [10]; in experiment [11]) was > 1000 nM throughout. The IC50 was > 1000 nM in [12], > 1000 nM in experiment [13], > 1000 nM in experiment [14] and 5.8 nM in the experiment with active hMMP-9(cat)_His6.

B6: active MMP-9-binding peptide M91002 (designed binder)
chain: GSGMKETAAAKFERQHMDSPDLGTDDDDKAMADIGSANSDPQFGLFSKYRTPNCRTGRGPACQMGFQPVCGSDMSTYANECTLCMKIREGGHNIKIIRNGPCGASAAA
As to B6, the IC50 is > 1000 nM in experiment [1]; > 1000 nM in experiment [2]; 5.1 nM in [3]; > 1000 nM in experiment [4]; > 1000 nM in [5]; > 1000 nM in experiment [6]. Besides, the IC50 (in experiment [7]; in experiment [8]; in experiment [9]; with Tryptase from human lung; in experiment [10]; in experiment [11]) was > 1000 nM in each case. Further, the IC50 in experiment [12] was > 1000 nM; in [13] it was > 1000 nM; in experiment [14] it was > 1000 nM; with active hMMP-9(cat)_His6, 8.5 nM.
